Results from PMC9399289.

Biological target: T1, GST-SDE2-FLAG WT (human) (UniProt Q6IQ49)
T1 sequence: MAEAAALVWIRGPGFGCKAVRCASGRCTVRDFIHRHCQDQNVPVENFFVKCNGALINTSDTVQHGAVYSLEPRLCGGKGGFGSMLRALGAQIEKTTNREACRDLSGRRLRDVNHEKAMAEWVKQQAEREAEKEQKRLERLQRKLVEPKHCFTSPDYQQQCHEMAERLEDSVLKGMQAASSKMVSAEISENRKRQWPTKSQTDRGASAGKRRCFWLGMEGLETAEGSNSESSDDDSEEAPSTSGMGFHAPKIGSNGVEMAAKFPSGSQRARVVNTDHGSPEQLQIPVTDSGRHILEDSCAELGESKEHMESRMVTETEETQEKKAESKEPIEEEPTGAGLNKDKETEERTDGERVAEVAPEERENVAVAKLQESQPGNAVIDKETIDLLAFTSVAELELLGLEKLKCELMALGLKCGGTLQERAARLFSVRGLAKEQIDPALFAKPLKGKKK
Assay: fluorescence anisotropy
Settings: EMSA: 10 mM Tris-HCl pH 7.5, 50 mM NaCl, 0.5 mM DTT, 0.05 mM EDTA, 3% glycerol, 0.05 mg/ml BSA (or 50 mM Na/K PO4 pH 6.0, 50 mM NaCl, 5 mM DTT), on ice …

Question: “GACGCTGCCGAATTCTACCAGTGCCTTGCTAGGACATCTTTGCCCACCTGCAGGTTCACCC (double strand) [60-mer dsDNA (EMSA1/EMSA2)]” was tested. Which Kd did it give?
Answer: Its Kd is 24.2 µM.
